Earlier results as cited in article PMC6457457.

Target: LC8 (Homo sapiens) (UniProt P63167)
Chain of UniProt P63167 (P63167 whole entry): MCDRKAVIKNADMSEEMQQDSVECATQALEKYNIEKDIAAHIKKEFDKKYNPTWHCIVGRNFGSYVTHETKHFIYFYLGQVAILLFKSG

Substance: VP35 (from UniProt Q6V1Q9)
- Kd: 82.4 nM
